Target: the molecule itself
Assay: western blot after SDS-PAGE under reducing and non-reducing conditions; isolated specific granules of human neutrophils, blotted with anti-OLFM4 clone #49; 12% polyacrylamide gels

B1: Olfactomedin 4 (OLFM4) (natural protein)
chain: not shown
modifications: highly glycosylated (sites not given); intermolecular disulphide bonds (cysteines not given)
notes: Olfactomedin 4, human, native protein from specific granules of neutrophils; 72 kD under reducing conditions; Multimer of unstated size; also called hGC-1; GW112
binding result: binds

Source: PMC4687705, “Plasma levels of OLFM4 in normals and patients with gastrointestinal cancer” (Journal of Cellular and Molecular Medicine, 2015)
